Data: publication PMC8408865

Biological target: C-terminal domain of Caenorhabditis elegans KCC-1, wild type, as used in solution (SEC, SEC/MALS) (C. elegans)
Assay: SEC

C-terminal domain of Caenorhabditis elegans KCC-1, wild type, as used in solution (SEC, SEC/MALS) (domain or fragment)
stoichiometry N: 2
